Experiments:
[1] = target: hMC3-R (human) (UniProt P41968); assay: competition with 125I-NDP-MSH, HEK 293 hMC3-R membranes, 1 µM peptide
[2] = target: hMC5-R (human) (UniProt P33032); assay: competition with 125I-NDP-MSH, HEK 293 hMC5-R membranes, 1 µM peptide
[3] = target: hMC4-R (human) (UniProt P32245); assay: competition with 125I-NDP-MSH, HEK 293 hMC4-R membranes, 1 µM peptide
Chain of hMC4-R (human) (P32245 whole entry): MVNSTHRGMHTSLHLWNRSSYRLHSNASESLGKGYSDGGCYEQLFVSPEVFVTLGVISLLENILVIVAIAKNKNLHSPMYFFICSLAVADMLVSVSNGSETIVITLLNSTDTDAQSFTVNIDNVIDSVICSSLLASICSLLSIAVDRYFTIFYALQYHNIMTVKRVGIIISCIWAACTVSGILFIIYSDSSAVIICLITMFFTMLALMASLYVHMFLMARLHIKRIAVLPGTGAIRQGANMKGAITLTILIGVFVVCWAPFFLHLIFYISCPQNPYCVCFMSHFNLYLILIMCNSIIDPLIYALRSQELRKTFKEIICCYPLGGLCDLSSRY

Chain of hMC5-R (human) (P33032 whole entry): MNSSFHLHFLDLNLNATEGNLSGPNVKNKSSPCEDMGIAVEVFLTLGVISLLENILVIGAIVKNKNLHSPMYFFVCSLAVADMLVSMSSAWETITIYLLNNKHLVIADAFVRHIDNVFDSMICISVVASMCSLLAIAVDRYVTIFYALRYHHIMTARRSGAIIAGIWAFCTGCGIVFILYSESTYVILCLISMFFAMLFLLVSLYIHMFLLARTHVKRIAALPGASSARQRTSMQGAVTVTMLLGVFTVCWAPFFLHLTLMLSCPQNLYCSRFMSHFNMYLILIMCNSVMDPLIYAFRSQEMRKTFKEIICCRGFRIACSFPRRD
Chain of hMC3-R (human) (P41968 whole entry): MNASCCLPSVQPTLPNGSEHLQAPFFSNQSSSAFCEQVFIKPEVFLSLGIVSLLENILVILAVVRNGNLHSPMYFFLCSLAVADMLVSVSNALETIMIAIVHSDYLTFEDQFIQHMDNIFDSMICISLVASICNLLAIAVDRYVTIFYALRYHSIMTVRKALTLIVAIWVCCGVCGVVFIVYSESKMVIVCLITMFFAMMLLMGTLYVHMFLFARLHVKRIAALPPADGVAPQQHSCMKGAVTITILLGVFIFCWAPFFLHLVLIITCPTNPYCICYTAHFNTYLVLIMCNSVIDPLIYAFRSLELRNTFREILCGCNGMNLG

Percent Inhibition At 1 µM concentration [1] [%]	Percent Inhibition At 1 µM concentration [2] [%]	Percent Inhibition At 1 µM concentration [3] [%]	Substance
6			Ac-Nle-cyclo(-Asp-His-D-Phe-Orn-Trp-Lys)-OH (peptide)
	7	4	Ac-Nle-cyclo(-Asp-His-Phe-Arg-Trp-Lys)-OH (SEQ ID NO:2) (peptide)
	8	9	Ac-Nle-cyclo(-Asp-D-His-D-Phe-Arg-Trp-Lys)-OH (peptide)
		4	Ac-Nle-cyclo(-Asp-His-D-Phe-D-Arg-Trp-Lys)-OH (peptide)
